The values that follow come from article PMC10876938, “In vitro SELEX and application of an African swine fever virus (ASFV) p30 protein specific aptamer”.

What is called Kd is the equilibrium constant for the complex coming apart.

The target of the data set is ASFV p30 (African swine fever virus, UniProt P34204 1-204). The experiment in a line: enzyme-linked aptamer adsorbed assay; […] (binding buffer not stated); […], room temperature, 30 min; […]. Conditions: protein: commercial, label: 5'-biotin.
ASFV p30, sequence (P34204 whole entry): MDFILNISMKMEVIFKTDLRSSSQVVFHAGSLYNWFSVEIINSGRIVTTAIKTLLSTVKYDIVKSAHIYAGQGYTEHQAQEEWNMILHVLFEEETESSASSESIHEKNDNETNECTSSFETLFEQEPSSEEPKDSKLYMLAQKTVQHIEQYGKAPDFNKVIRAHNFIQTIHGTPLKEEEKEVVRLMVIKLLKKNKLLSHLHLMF
The mark [1] stands for this setting: hairpin (M-fold predicted for parent).

B1: Atc-28 (ssDNA)
DNA: CATAGGGTCGACGGTGCCGTCCGTGTTCACACTCCCATTTGGGTGGCCTATG
Regarding B1, the Kd under setting [1] is 0.153 ± 0.0003 nM.

B2: Atc-20 (ssDNA)
DNA: CACGCATAGGGTCGACGGTGCCGTCCGTGTTCACACTCCCATTTGGGTGGCCTATGCGTG
On to B2, for which the Kd under setting [1] was 0.14 ± 0.01 nM.

B3: Apt A4 (biotin) (ssDNA)
DNA: ATTGGCACTCCACGCATAGGGTCGACGGTGCCGTCCGTGTTCACACTCCCATTTGGGTGGCCTATGCGTGCTACCGTGAA
Regarding B3, the equilibrium dissociation constant (Kd) (hairpin (M-fold predicted)) is 0.17 ± 0.0062 nM. For the molecule GGGTCGACGGTGCCGTCCGTGTTCACACTCCCATTTGGGTGGCC (ssDNA) [Atc-34], the Kd under setting [1] is 0.266 ± 0.068 nM. As for ATTGGCACTCCACGCATCTATGCGTGCTACCGTGAA (ssDNA) [AptNC], the binding result is “no binding”.
